{"source": "patent US8318172B2", "about": "“Breaking immunological tolerance with a genetically encoded unnatural amino acid” (The Scripps Research Institute, priority 2008, dated 2012)", "molecules": {"B1": {"name": "Phe^86 mTNFα: Tyr^86 Phe mutant of mTNFα, control without NO2 group (protein)", "chain": "LRSSSQNSSDKPVAHVVANHQVEEQLEWLSQRANALLANGMDLKDNQLVVPADGLYLVYSQVLFKGQGCPDYVLLTHTVSRFAISFQEKVNLLSAVKSPCPKDTPEGAELKPWYEPIYLGGVFQLEKGDQLSAEVNLPKYLDFAESGQVYFGVIAL"}, "B2": {"name": "WT mTNFα: wild-type murine tumor necrosis factor-α expressed in E. coli (protein)", "chain": "MSTESMIRDVELAEEALPQKMGGFQNSRRCLCLSLFSFLLVAGATTLFCLLNFGVIGPQRDEKFPNGLPLISSMAQTLTLRSSSQNSSDKPVAHVVANHQVEEQLEWLSQRANALLANGMDLKDNQLVVPADGLYLVYSQVLFKGQGCPDYVLLTHTVSRFAISYQEKVNLLSAVKSPCPKDTPEGAELKPWYEPIYLGGVFQLEKGDQLSAEVNLPKYLDFAESGQVYFGVIAL"}}, "key": {"[1]": {"target": "T1, WT mTNFα (Mus musculus, UniProt P06804)", "T1 construct": "ELISAs were measured against WT mTNFα aa 1-156; His6 tag followed by factor Xa cleavage site (N, cleaved yes); made in house; host or cells: E. coli BL21(DE3)", "T1 sequence (P06804 80-235)": "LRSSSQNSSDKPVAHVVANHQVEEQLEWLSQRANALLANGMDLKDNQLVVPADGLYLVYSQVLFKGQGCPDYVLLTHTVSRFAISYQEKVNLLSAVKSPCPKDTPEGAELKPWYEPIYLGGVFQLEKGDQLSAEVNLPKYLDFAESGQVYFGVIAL", "type": "in vivo, mice", "protocol": "(§1) The plates were washed with PBST between incubations.\n(§2) 30 μl of 0.5 μg/ml protein was used to coat the wells of Maxisorp 384-well plates (Nunc, Rochester, N.Y.) overnight at 4° C. After washing with PBS+0.05% Tween 20 (PBST), the coated plates were blocked with 80 μl of 1% BSA in PBS, and washed again with PBST. The plates were sequentially incubated with 20 μl of primary antibody or serum diluted in 1% BSA in PBS, 20 μl of HRP-conjugated goat anti-mouse IgG or anti-mouse IgM (Jackson ImmunoResearch Laboratories, West Grove, Pa.), and 20 μl of TMB substrate (KPL, Gaithersburg, Md.), and read at an absorbance of 650 nm. Between incubations, the plates were washed at least six times with PBST."}, "[2]": {"test_system": "CD4+ T cells from immunized mice", "assay": "T cell proliferation assay", "type": "cell-based", "details": "Bcl-2 mice, stimulated in vitro with pNO2Phe^86 mTNFα", "quoted_text": "For mice immunized without adjuvant, the RIMMS protocol involved 8 injections (5 μg protein/injection) over a period of 17 days. For mice immunized with adjuvant, CFA was used for the first injection and IFA for the remaining 7 injections. […] To perform the T-cell proliferation assays, CD4^+ T cells from immunized mice were isolated from lymph nodes by magnetic depletion with MACS beads (Miltenyi Biotec). T cells were then placed into culture with irradiated splenocytes from naïve Bcl-2 mice and increasing amounts of antigen. The cultures were incubated for 48 h and then pulsed with [^3H]thymidine overnight. The culture plates were harvested onto filter mats and radioactivity was quantified with a TopCount scintillation counter (PerkinElmer).\nIsolation of CD4^+ T cells from the lymph nodes of immunized C57BL/6 mice was carried out by magnetic depletion with MACS beads (Miltenyi Biotec, Auburn, Calif.). T cells were then placed into culture with irradiated splenocytes from naïve C57BL/6 mice and increasing amounts of antigen. Following incubation for 48 h, the cultures were incubated with ^3H-thymidine overnight. After harvesting the culture plates onto filter mats, radioactivity was quantified with a TopCount scintillation counter (PerkinElmer, Boston, Mass.)."}, "[3]": {"test_system": "C57BL/6 mice, lipopolysaccharide (LPS) challenge", "assay": "LPS challenge in TNFα-dependent severe endotoxemia mouse model", "type": "in vivo"}, "[4]": {"test_system": "WT mTNFα", "type": "in vivo, mice", "details": "C57BL/6 mice, 8 injections of 5 μg over 17 days, CFA/IFA, serum diluted 1/1000", "protocol": "as §1, §2"}, "[5]": {"test_system": "NFκB pathway in HEK293 cells stably expressing NFκB-Luc", "details": "NF-κB-luciferase activity analysis of mTNFα variants", "quoted_text": "The biological activities of the proteins were assayed by measuring the mTNFα-induced activation of NFκB pathway in a NFκB-luciferase reporter cell line. […] The stable cells were dissociated with trypsin, resuspended in DMEM containing 10% FBS at 5×10^5 cells/ml, and plated at 20 μl/well in 384-well white plate (Greiner, Longwood, Fla.). After 2 hours incubation at 5% CO2 in a 37° C. tissue culture incubator, 20 μl of TNFα was added to the cells. The cells were continuously incubated for 24 hours. Luciferase activities were measured by addition of 20 μl Bright-Glo (Promega, Madison, Wis.), and the plate was read using a luminescence plate reader.\nThe activity of pNO2Phe mTNFα mutants was determined by an NFκB-luciferase reporter gene assay using HEK293 cells stably expressing NFκB-luciferase as described previously (Grunewald, J. et al. (2008) “Immunochemical termination of self-tolerance.” Proc Natl Acad Sci USA 105: 11276-11280)."}}}
{"molecule": "B1", "values": [{"measurement": "anti-TNFα titers", "setting": "[1]; Bcl2 mice, presence or absence of CFA/IFA", "result": "no significant anti-TNFα titers"}, {"measurement": "CD4+ T cells specific for pNO2Phe^86 mTNFα elicited by immunization", "setting": "[2]", "result": "not when mice were immunized"}]}
{"molecule": "B2", "values": [{"measurement": "survival rate", "setting": "[3]; active immunization, C57BL/6 mice, LPS 8.5 mg/kg i.p.", "result": 12.5, "unit": "%"}, {"measurement": "survival rate", "setting": "[3]; passive: pooled serum (100 uL) or purified IgG (4 mg/kg) from immunized Bcl-2 mice, LPS 7.5 mg/kg", "result": "16.7-25.0%"}, {"measurement": "serum IgG titers against pNO2Phe^86 mTNFα and WT mTNFα", "setting": "[4]", "result": "insignificant serum IgG titers"}, {"measurement": "sustaining titers of cross-reactive anti-mTNFα antibodies", "setting": "[1]; one injection of pNO2Phe^86 mTNFα in CFA, then 7 injections in IFA", "result": "cannot sustain significant titers"}, {"measurement": "CD4+ T cells specific for pNO2Phe^86 mTNFα elicited by immunization", "setting": "[2]", "result": "not when mice were immunized"}, {"measurement": "EC50", "setting": "[5]", "result": 216, "unit": "pM"}]}
